Assay [1] has as its target Notch1 chimeric antigen, Lin-A domain swapped with murine sequence (human; human with mouse Lin-A) (UniProt P46531). The experiment in a line: ELISA, relative to huN1-NRRHD.
Assay [2] has as its target huN1-NRRHD Mutant 1457E/A (human) (UniProt P46531). The experiment in a line: ELISA, relative to huN1-NRRHD. (ELISA stands for enzyme-linked immunosorbent assay.)
The target in assay [3] is huN1-NRRHD Mutant 1462K/A (human) (UniProt P46531). The experiment in a line: ELISA, relative to huN1-NRRHD.
In assay [4] the target is huN1-NRRHD Mutant 1463V/A (human) (UniProt P46531). The assay is described as follows: ELISA, relative to huN1-NRRHD.
Assay [5] addresses huN1-NRRHD Mutant 1465S/N (human) (UniProt P46531). The experiment in a line: ELISA, relative to huN1-NRRHD.
The target of assay [6] is huN1-NRRHD Mutant 1466L/A (human) (UniProt P46531). The assay is described as follows: ELISA, relative to huN1-NRRHD.
For assay [7], the target named is huN1-NRRHD Mutant 1467Q/A (human) (UniProt P46531). The experiment in a line: ELISA, relative to huN1-NRRHD.
For assay [8], the target named is Notch1 chimeric antigen, Lin-A domain swapped with murine sequence (human; human with mouse Lin-A) (UniProt P46531). The assay is described as follows: ELISA on coated conditioned medium.
The target of assay [9] is huN1-NRRHD chimeric antigen, HD-C Subdomain swap 1 (to Notch2 sequence) (human; human with Notch2 residues) (UniProt P46531). The experiment in a line: ELISA on coated conditioned medium.
In assay [10] the target is huN1-NRRHD chimeric antigen, HD-C Subdomain swap 2 (to Notch2 sequence) (human; human with Notch2 residues) (UniProt P46531). The assay is described as follows: ELISA on coated conditioned medium.
Assay [11] concerns the target huN1-NRRHD chimeric antigen, HD-C Subdomain swap 3 (to Notch2 sequence) (human; human with Notch2 residues) (UniProt P46531). The experiment in a line: ELISA on coated conditioned medium.
Assay [12] deals with huN1-NRRHD chimeric antigen, HD-C Subdomain swap 4 (to Notch2 sequence) (human; human with Notch2 residues) (UniProt P46531). The assay is described as follows: ELISA on coated conditioned medium.
Assay [13] concerns the target huN1-NRRHD chimeric antigen, HD-C Subdomain swap 5 (to Notch2 sequence) (human; human with Notch2 residues) (UniProt P46531). The experiment in a line: ELISA on coated conditioned medium.

This note sets out measurements from US20120093813A1.

B1: mouse monoclonal antibody N248A (antibody, IgG1, V domains shown)
VH: QVQLQQSGAELMKPGASVKISCKATGYTFSNYWMEWVKQRPGHGLEWIGEILPGRGRTNYNENFKGKATFTADTSSNTVYMQLNSLTSEDSAVYYCARFHSSAYYYTMDYWGQRTSVTVSS
VL: QAVVTQESALTTSPGETVTLTCRSSTGAVTTSNYANWVQEKPDHLFTGLIGGTNNRAPGIPARFSGSLIGDKAALTITGAQTEDEAIYFCALWYSNHWVFGGGTKLTVL
Regarding B1, the Binding activity in assay [1] is 11%; in assay [2] it was 112%; in assay [3], 85%; in assay [4], 6%; in assay [5], 8%; in assay [6], 1%. Moreover, in assay [7], the Binding activity was found to be 4%. This molecule showed an ELISA reading in assay [8] of 0.33. Besides, the ELISA reading (Binding activity) in assay [9] came out at 0.48; in assay [10] it was 2.76; in [11], 2.81; in assay [12] it was 2.89; in [13], 1.48.
